Values belong to the binder of their own block, whether it stands above or below them.
Legend:
[1] = target: T1, soluble FLAG-tagged recombinant hLIGHT (native, untreated) (human, UniProt O43557 66-240); test: dot blot: serial dilutions of native soluble hLIGHT on PVDF, probed with 5 µg/ml antibody, chemiluminescence
T1 construct: N-terminal FLAG tag followed by hLIGHT extracellular region Gly66 to Val240; also called soluble hLIGHT; FLAG-hLIGHT
T1 chain: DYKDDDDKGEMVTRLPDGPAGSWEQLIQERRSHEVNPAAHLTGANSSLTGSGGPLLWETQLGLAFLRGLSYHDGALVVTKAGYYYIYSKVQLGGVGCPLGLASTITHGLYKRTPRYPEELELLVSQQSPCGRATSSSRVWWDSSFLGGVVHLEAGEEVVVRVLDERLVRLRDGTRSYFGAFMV
Procedure: Each blot was probed with 5 μg/ml of each primary antibody. […] The blots were washed 3× in 1×TBST followed by super SA-HRP (Amersham Biosciences, Piscataway, N.J.). Chemiluminescence was used for detection using the ECL detection kit (Amersham Biosciences, Piscataway, N.J.) and signal was visualized by exposure to X-OMAT AR imaging film (Kodak, Rochester, N.Y.). […] An anti-M2 (irrelevant antigen) antibody was used as a negative control.
Five micrograms of soluble human LIGHT was either boiled in 2×SDS sample buffer (denatured) or untreated (native), and then both were serially diluted in 6× increments. 5 μl of each hLIGHT dilution was spotted simultaneously onto hydrated 0.2 μm PVDF membranes (Invitrogen, Carlsbad, Calif.) using an 8 multi-channel pipette. […] Each blot was probed with 5 μg/ml of each primary antibody (see below). […] The blots were washed 3×in 1×TBST followed by super SA-HRP (Amersham Biosciences, Piscataway, N.J.). Chemiluminescence was used for detection using the ECL detection kit (Amersham Biosciences, Piscataway, N.J.) and signal was visualized by exposure to X-OMAT AR imaging film (Kodak, Rochester, N.Y.)

[2] = target: T2, hLIGHT SNP variant 214K-32S, cell surface-expressed on EL4 cells (human, UniProt O43557 1-240); test: flow cytometry dose titration on EL4 cells expressing 214K-32S
Procedure: (§1) For FIG. 25A-25D, the geometric mean fluorescence intensity (MFI) was determined and non-linear regression analysis applied.

[3] = target: T3, human LIGHT (hLIGHT), cell surface-expressed, full length (human, UniProt O43557 1-240); test: flow cytometry on HEK 293-hLIGHT cells
T3 construct: also called native hLIGHT on the cell surface; EL4-hLIGHT

[4] = target: T4, hLIGHT SNP variant 214E-32L, cell surface-expressed on EL4 cells (human, UniProt O43557 1-240); test: flow cytometry dose titration on EL4 cells expressing the SNP variant
T4 construct: also called cytoplasmic SNP
T4 chain: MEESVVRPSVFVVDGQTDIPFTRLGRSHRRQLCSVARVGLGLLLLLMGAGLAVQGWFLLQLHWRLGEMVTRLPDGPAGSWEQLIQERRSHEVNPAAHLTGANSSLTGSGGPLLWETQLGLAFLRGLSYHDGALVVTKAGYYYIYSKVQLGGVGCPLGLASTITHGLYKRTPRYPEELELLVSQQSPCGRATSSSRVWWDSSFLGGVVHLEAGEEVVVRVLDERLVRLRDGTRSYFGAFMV
Procedure: as §1

[5] = target: T5, hLIGHT SNP variant 214E-32S, cell surface-expressed on EL4 cells (human, UniProt O43557 1-240); test: as above
Procedure: as §1

[6] = target: T5, hLIGHT SNP variant 214E-32S, cell …; test: flow cytometry at 10 µg/ml antibody on EL4 SNP cell lines
Source text: (§2) Binding was detected with goat anti-human IgG-APC secondary antibody. Isotype control human IgG was used as a negative control.

[7] = target: T2, hLIGHT SNP variant 214K-32S, cell …; test: flow cytometry at one antibody concentration on EL4 SNP 214K cell line
Source text: as §2

[8] = target: T3, human LIGHT (hLIGHT), cell …; test: flow cytometry on hLIGHT-transfected cells

lowest limit of detection [1]: 23 ng
B1: F23 antibody (produced by hybridoma 124 F23, ATCC Accession No. PTA-7728) (antibody, V domains shown)
VH: QVQLQQWGAGLLKPSETLSLTCAVYGGSFSGYYWNWIRQPPGKGLEWIGEINQYNPSLKSRVTISVDTSKNQFSLKLSSVTAADTAVYYCAREIATADKGYYGLDVWGQGTTVTVSS
VL: AIQLTQSPSSLSASVGDRVTITCRASQGISSALAWYQQKPGKAPKLLIYDASSLESGVPSRFSGSGSGTDFTLTISSLQPEDFATYYCQQFNSYPLTFGGGTKVEIK
notes: Residue ranges without leader are those stated in claim 28 (CLM-00028)

lowest limit of detection [1]: 23 ng
B2: E1 antibody (produced by hybridoma 124 E1, ATCC Accession No. PTA-7729) (antibody, V domains shown)
VH: EVQLVESGGGLVQPGGSLRLSCAASGFTFSRFNMNWVRQAPGKGLEWVSYISSSSYTIYYADSVKGRFTISRDNAKNSLDLQMNSLRDEDTAVYYCARSIAAAFDYWGQGALVTVSS
VL: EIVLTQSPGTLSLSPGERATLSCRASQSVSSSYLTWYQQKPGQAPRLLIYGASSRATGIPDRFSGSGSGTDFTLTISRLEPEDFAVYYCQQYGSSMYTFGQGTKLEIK
notes: Fully human IgG1 purified from hybridoma culture

binding result [2]: no binding | binding result [3]: binds | binding result [4]: binds | binding result [5]: binds
B3: recombinant single kappa chain antibody of E1 heavy chain paired with Elkappa(B) (antibody, V domains shown)
VH: EVQLVESGGGLVQPGGSLRLSCAASGFTFSRFNMNWVRQAPGKGLEWVSYISSSSYTIYYADSVKGRFTISRDNAKNSLDLQMNSLRDEDTAVYYCARSIAAAFDYWGQGALVTVSS
VL: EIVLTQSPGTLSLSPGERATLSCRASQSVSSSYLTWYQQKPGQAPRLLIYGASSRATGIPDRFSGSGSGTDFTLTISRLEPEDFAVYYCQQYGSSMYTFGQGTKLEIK
notes: also called E1kappa(B); 124Elkappa(B)

lowest limit of detection [1]: 3.9 ng | binding result [6]: binds | binding result [7]: no binding (tested: 10 µg/ml) | binding result [8]: binds
B4: E63 antibody (produced by hybridoma 124 E63, ATCC Accession No. PTA-7818) (antibody, V domains shown)
VH: QVQLQESGPGLVKPSETLSLTCIVSGGSVSSGGYYWSWIRQPPGKGLEWIGYIYYSGSTNYNPSLKSRVTISVDTSKNQFSLKLSSVTAADTAVYYCARWITMFRGVGFDPWGQGTLVTVSS
VL: EIVLTQSPDFQSVTPKEKVTITCRASQSIGSSLHWYQQKPDQSPKLLIKYASQSFSGVPSRFSGSGSGTDFTLTINSLEAEDAAAYYCHQSSSLPLTFGGGTKVEIK
notes: a recombinant IgG1 version (E63G1) was also made

— patent US20150337046A1 (Kyowa Kirin, published 2015)
